The target of experiment [1] is T1, oligomeric Aβ42 (biotin-Aβ42 oligomers) (human, biotin (human biotin-beta-Amyloid (1-42), AnaSpec); position not stated).
T1 construct: Mixture of oligomers prepared from human Aβ42 (24-26 h at 4 °C, supernatant); The number of copies per oligomer is therefore not fixed; also called Aβ oligomers; oligomerized Aβ
The experiment is described as follows: biotin-Aβ42 oligomers on transfected HEK293T cells, streptavidin staining.

Experiment [2] addresses T1, oligomeric Aβ42 (biotin-Aβ42 oligomers). The experiment is described as follows: biotin-Aβ42 oligomers on transfected HEK293T cells, 488-conjugated streptavidin staining. The text has this:
Binding assay. HEK293 cells were transiently transfected (polyethylenimine) with expression vectors encoding TdTomato, Celsr3-Flag or control empty vectors (pCAGEN). […] DAPI was used to counterstain cell nuclei; TdTomato was used to monitor construct transfection. Anti-flag antibody was used to stain Celsr3. Fluorescent images were captured with Zeiss LSM 880 fast airyscan using a 63× oil-immersion objective.

The source of these data is patent publication US20220380454A1 (University of California, published 2022).

B1: human Ryk-Flag (receptor)
chain: PPPLLLLLALLPLLPAPGAAAAPAPRPPELQSASAGPSVSLYLSEDEVRRLIGLDAELYYVRNDLISHYALSFSLLVPSETNFLHFTWHAKSKVEYKLGFQVDNVLAMDMPQVNISVQGEVPRTLSVFRVELSCTGKVDSEVMILMQLNLTVNSSKNFTVLNFKRRKMCYKKLEEVKTSALDKNTSRTIYDPVHAAPTTSTRVFYISVGVCCAVIFLVAIILAVLHLHSMKRIELDDSISASSSSQGLSQPSTQTTQYLRADTPNNATPITSSLGYPTLRIEKNDLRSVTLLEAKGKVKDIAISRERITLKDVLQEGTFGRIFHGILIDEKDPNKEKQAFVKTVKDQASEIQVTMMLTESCKLRGLHHRNLLPITHVCIEEGEKPMVILPYMNWGNLKLFLRQCKLVEANNPQAISQQDLVHMAIQIACGMSYLARREVIHKDLAARNCVIDDTLQVKITDNALSRDLFPMDYHCLGDNENRPVRWMALESLVNNEFSSASDVWAFGVTLWELMTLGQTPYVDIDPFEMAAYLKDGYRIAQPINCPDELFAVMACCWALDPEERPKFQQLVQCLTEFHAALGAYV
notes: not shown: Flag tag
Consider B1, for which the binding result in experiment [1] is listed as “no binding (tested: 200 nM total peptide, monomer equivalent)”.

B2: mouse Ryk-HA (receptor, UniProt Q01887 35-594, looked up)
chain: RSPALAAAPAGPSVSLYLSEDEVRRLLGLDAELYYVRNDLISHYALSFNLLVPSETNFLHFTWHAKSKVEYKLGFQVDNFVAMGMPQVNISAQGEVPRTLSVFRVELSCTGKVDSEVMILMQLNLTVNSSKNFTVLNFKRRKMCYKKLEEVKTSALDKNTSRTIYDPVHAAPTTSTRVFYISVGVCCAVIFLVAIILAVLHLHSMKRIELDDSISASSSSQGLSQPSTQTTQYLRADTPNNATPITSSSGYPTLRIEKNDLRSVTLLEAKAKVKDIAISRERITLKDVLQEGTFGRIFHGILVDEKDPNKEKQTFVKTVKDQASEVQVTMMLTESCKLRGLHHRNLLPITHVCIEEGEKPMVVLPYMNWGNLKLFLRQCKLVEANNPQAISQQDLVHMAIQIACGMSYLARREVIHRDLAARNCVIDDTLQVKITDNALSRDLFPMDYHCLGDNENRPVRWMALESLVNNEFSSASDVWAFGVTLWELMTLGQTPYVDIDPFEMAAYLKDGYRIAQPINCPDELFAVMACCWALDPEERPKFQQLVQCLTEFHAALGAYV
notes: whole, on cells; Expressed in HEK293T cells; not shown: HA tag
As to B2, the binding result in experiment [1] is given as “no binding (tested: 200 nM total peptide, monomer equivalent)”.

B3: Vangl2-Flag (other, not shown: small tags and cut ends)
chain: MDTESQYSGYSYKSGHSRSSRKHRDRRDRHRSKSRDGSRGDKSVTIQAPGEPLLDNESTRGDERDDNWGETTTVVTGTSEHSISHDDLTRIAKDMEDSVPLDCSRHLGVAAGAILALLSFLTPLAFLLLPPLLWREELEPCGTACEGLFISVAFKLLILLLGSWALFFRRPKASLPRVFVLRALLMVLVFLLVISYWLFYGVRILDARERSYQGVVQFAVSLVDALLFVHYLAVVLLELRQLQPQFTLKVVRSTDGASRFYNVGHLSIQRVAVWILEKYYHDFPVYNPALLNLPKSVLAKKVSGFKVYSLGEENSTNNSTGQSRAVIAAAARRRDNSHNEYYYEEAEHERRVRKRRARLVVAVEEAFTHIKRLQEEEQKNPREVMDPREAAQAIFASMARAMQKYLRTTKQQPYHTMESILQHLEFCITHDMTPKAFLERYLAAGPTIQYHKERWLAKQWTLVSEEPVTNGLKDGIVFLLKRQDFSLVVSTKKVPFFKLSEEFVDPKSHKFVMRLQSETSV
As for B3, the binding result in experiment [2] was “no binding (tested: 200 nM total peptide, monomer equivalent)”.

B4: Frizzled3-HA (receptor, not shown: small tags and cut ends)
chain: HSLFSCEPITLRMCQDLPYNTTFMPNLLNHYDQQTAALAMEPFHPMVNLDCSRDFRPFLCALYAPICMEYGRVTLPCRRLCQRAYSECSKLMEMFGVPWPEDMECSRFPDCDEPYPRLVDLNLVGDPTEGAPVAVQRDYGFWCPRELKIDPDLGYSFLHVRDCSPPCPNMYFRREELSFARYFIGLISIICLSATLFTFLTFLIDVTRFRYPERPIIFYAVCYMMVSLIFFIGFLLEDRVACNASSPAQYKASTVTQGSHNKACTMLFMVLYFFTMAGSVWWVILTITWFLAAVPKWGSEAIEKKALLFHASAWGIPGTLTIILLAMNKIEGDNISGVCFVGLYDVDALRYFVLAPLCLYVVVGVSLLLAGIISLNRVRIEIPLEKENQDKLVKFMIRIGVFSILYLVPLLVVIGCYFYEQAYRGIWETTWIQERCREYHIPCPYQVTQMSRPDLILFLMKYLMALIVGIPSIFWVGSKKTCFEWASFFHGRRKKEIVNESRQVLQEPDFAQSLLRDPNTPIIRKSRGTSTQGTSTHASSTQLAMVDDQRSKAGSVHSKVSSYHGSLHRSRDGRYTPCSYRGMEERLPHGSMSRLTDHSRHSSSHRLNEQSRHSSIRDLSNNPMTHITHGTSMNRVIEEDGTSA
notes: Expressed in transfected HEK293T cells; also called Fzd3-HA; HA-tagged Frizzled3
As to B4, in experiment [2], the binding result is reported as “no binding (tested: 200 nM total peptide, monomer equivalent)”.
